Data from article PMC4568377.
“And” between values parts separate entries of the source, which are not always exact repeats. Equal entries are not always repeated.

Columns and labels:
AKAP7γ-EGFP (human) = experiment: photon counting histogram analysis (fluorescence fluctuation); AKAP7γ-EGFP in live HEK-293 cells, cytoplasm; two-component global fit with brightness constrained to monomeric and tandem EGFP; apparent Kd, monomer to dimer; 75 measurements from 5 cells
[1] = biological target: His/S-tagged AKAP7γ (human); experiment: SPR; Biacore T100; AKAP7γ or AKAP7α amine-coupled to a CM5 chip (150 RU) in separate flow chambers; analytes AKAP7γ or AKAP7α 12.5–200 nM in HBS (10 mM Hepes pH 7.4, 150 mM NaCl, 0.005% Surfactant P20), 30 μL/min, 300 s; heterogeneous analyte model

| Substance | Kd (AKAP7γ-EGFP (human)) | percent of the particles detected that are dimer (AKAP7γ-EGFP (human)) | percent of the protein in the dimeric form (AKAP7γ-EGFP (human)) | stoichiometry N (AKAP7γ-EGFP (human)) | KD, site 1 (heterogeneous analyte model) [1] | KD, site 2 (heterogeneous analyte model) [1] |
| --- | --- | --- | --- | --- | --- | --- |
| AKAP7γ-EGFP (natural protein) | 78.8 to 126 nM and 98.4 nM | 20% | 28.7% | 2 | – | – |
| His/S-tagged AKAP7γ (natural protein) | – | – | – | – | 0.537 nM | 79.7 nM |
